Article PMC8357123, “Modeling of DNA binding to the condensin hinge domain using molecular dynamics simulations guided by atomic force microscopy” (PLoS Computational Biology, 2021)

Target: T1, Smc4 (S. cerevisiae (budding yeast), UniProt Q12267 1-1418)
T1 construct: Smc4, subunit of the budding yeast condensin complex; The holo-complex was purified over HisTrap and Strep-Tactin; also called condensin subunit Smc4
T1 sequence (looked up): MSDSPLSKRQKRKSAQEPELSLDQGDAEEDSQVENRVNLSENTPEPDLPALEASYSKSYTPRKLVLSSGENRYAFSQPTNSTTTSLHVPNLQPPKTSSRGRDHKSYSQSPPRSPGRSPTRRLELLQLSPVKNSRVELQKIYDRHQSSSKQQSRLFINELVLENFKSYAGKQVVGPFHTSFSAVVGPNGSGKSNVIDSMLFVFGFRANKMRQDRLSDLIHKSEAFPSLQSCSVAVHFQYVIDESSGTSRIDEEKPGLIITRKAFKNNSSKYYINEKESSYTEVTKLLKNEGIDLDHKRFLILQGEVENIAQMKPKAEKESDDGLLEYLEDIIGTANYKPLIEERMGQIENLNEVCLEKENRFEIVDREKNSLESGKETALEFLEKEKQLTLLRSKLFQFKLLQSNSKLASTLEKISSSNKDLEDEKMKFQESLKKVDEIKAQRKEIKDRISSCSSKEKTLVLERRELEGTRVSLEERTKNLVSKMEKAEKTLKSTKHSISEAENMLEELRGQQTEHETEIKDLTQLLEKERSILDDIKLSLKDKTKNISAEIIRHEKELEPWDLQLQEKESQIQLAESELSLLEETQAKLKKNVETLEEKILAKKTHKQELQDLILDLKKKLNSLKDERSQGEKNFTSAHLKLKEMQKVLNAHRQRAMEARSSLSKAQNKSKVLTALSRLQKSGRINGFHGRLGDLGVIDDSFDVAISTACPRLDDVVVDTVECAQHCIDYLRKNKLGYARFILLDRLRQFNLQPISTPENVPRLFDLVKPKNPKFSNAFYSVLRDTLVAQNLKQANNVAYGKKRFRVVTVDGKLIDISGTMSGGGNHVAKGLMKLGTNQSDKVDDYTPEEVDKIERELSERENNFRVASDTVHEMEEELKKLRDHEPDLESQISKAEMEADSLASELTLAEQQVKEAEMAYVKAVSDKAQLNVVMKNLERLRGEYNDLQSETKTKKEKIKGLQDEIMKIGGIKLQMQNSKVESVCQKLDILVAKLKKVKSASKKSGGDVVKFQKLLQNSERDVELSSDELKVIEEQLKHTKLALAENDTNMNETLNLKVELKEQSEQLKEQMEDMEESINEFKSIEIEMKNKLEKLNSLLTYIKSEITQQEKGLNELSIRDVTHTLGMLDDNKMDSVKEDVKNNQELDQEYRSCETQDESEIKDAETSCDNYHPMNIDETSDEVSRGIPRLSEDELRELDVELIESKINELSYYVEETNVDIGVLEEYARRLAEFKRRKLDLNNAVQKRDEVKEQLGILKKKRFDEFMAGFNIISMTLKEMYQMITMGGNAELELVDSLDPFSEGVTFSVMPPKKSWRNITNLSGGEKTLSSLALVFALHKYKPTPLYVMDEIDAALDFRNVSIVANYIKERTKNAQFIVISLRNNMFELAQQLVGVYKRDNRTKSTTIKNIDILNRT
Assay: high-speed atomic force microscopy (HS-AFM); 1 nM purified condensin holo-complex on bare mica in 40 mM Tris-HCl pH7.5, 125 mM KCl, 10 mM MgCl2, 1 mM DTT, 4 mM ATP; room temperature; 150 ms/frame; 36 molecules observed
Details: both partners purified

B1: Smc2 (natural protein, S. cerevisiae (budding yeast), UniProt P38989 1-1170, looked up)
chain: MKVEELIIDGFKSYATRTVITDWDPQFNAITGLNGSGKSNILDAICFVLGIASMSTVRASSLQDLIYKRGQAGVTKASVTIVFDNTDKSNSPIGFTNSPQISVTRQVVLGGTSKYLINGHRAPQQSVLQLFQSVQLNINNPNFLIMQGKITKVLNMKPSEILSLIEEAAGTKMFEDRREKAERTMSKKETKLQENRTLLTEEIEPKLEKLRNEKRMFLEFQSTQTDLEKTERIVVSYEYYNIKHKHTSIRETLENGETRMKMLNEFVKKTSEEIDSLNEDVEEIKLQKEKELHKEGTISKLENKENGLLNEISRLKTSLSIKVENLNDTTEKSKALESEIASSSAKLIEKKSAYANTEKDYKMVQEQLSKQRDLYKRKEELVSTLTTGISSTGAADGGYNAQLAKAKTELNEVSLAIKKSSMKMELLKKELLTIEPKLKEATKDNELNVKHVKQCQETCDKLRARLVEYGFDPSRIKDLKQREDKLKSHYYQTCKNSEYLKRRVTNLEFNYTKPYPNFEASFVHGVVGQLFQIDNDNIRYATALQTCAGGRLFNVVVQDSQTATQLLERGRLRKRVTIIPLDKIYTRPISSQVLDLAKKIAPGKVELAINLIRFDESITKAMEFIFGNSLICEDPETAKKITFHPKIRARSITLQGDVYDPEGTLSGGSRNTSESLLVDIQKYNQIQKQIETIQADLNHVTEELQTQYATSQKTKTIQSDLNLSLHKLDLAKRNLDANPSSQIIARNEEILRDIGECENEIKTKQMSLKKCQEEVSTIEKDMKEYDSDKGSKLNELKKELKLLAKELEEQESESERKYDLFQNLELETEQLSSELDSNKTLLHNHLKSIESLKLENSDLEGKIRGVEDDLVTVQTELNEEKKRLMDIDDELNELETLIKKKQDEKKSSELELQKLVHDLNKYKSNTNNMEKIIEDLRQKHEFLEDFDLVRNIVKQNEGIDLDTYRERSKQLNEKFQELRKKVNPNIMNMIENVEKKEAALKTMIKTIEKDKMKIQETISKLNEYKRETLVKTWEKVTLDFGNIFADLLPNSFAKLVPCEGKDVTQGLEVKVKLGNIWKESLIELSGGQRSLIALSLIMALLQFRPAPMYILDEVDAALDLSHTQNIGHLIKTRFKGSQFIVVSLKEGMFANANRVFRTRFQDGTSVVSIM
notes: Smc2, subunit of the budding yeast condensin complex; The holo-complex was purified over HisTrap and Strep-Tactin; also called condensin subunit Smc2
binding result: binds
